Where “and” joins values, the source holds several entries; their conditions need not be identical. Identical values can stand only once. Entries after “also recorded” stand apart in the source; their conditions may differ.
B1: 3F6-9G5: anti-human A2aR monoclonal antibody from mouse hybridoma clone; HCVR SEQ ID NO: 36, LCVR SEQ ID NO: 42 (antibody, V domains shown)
VH: QVQLQQPGTELVKPGAPVRLSCKASGFAFTSYWMNWVRQRPGRGLEWIGRIDPSDSEAHYHHKFWGKATLTVDKSSSTVYIQLNGLTSEDSAVYYCLRSLYGKGDYWGHGTTLTVSS
VL: DVLMTQTPLSLSVRLGDQASISCRSSQSLVHRNGNTYLEWYLQRPGQSPKLLIYKVSNRFSGVPDRFSGSGSGTDFTLKISRVEAEDLGVYYCYQGSHVPLTFGSGTKLEIK
B2: anti-human A2aR monoclonal antibody 1B5-3D7 (antibody, V domains shown)
VH: QVQLQQPGTELVKPGAPVKLSCKTSGFTFTRFWMNWVRQRPGRGLEWIGRIDPYDSETQYNHKFWDRATLTVDKSSSTVYIQLSSLTSEDSAVYYCGRSLYGKGDYWGQGTTLTVSS
VL: DVLMTQSPLSLPVSLGDQASISCRSSQSIVHSNGNTYLEWYLQRPGQSPKLLIYKVSNRFSGVPDRFSGSGSGTYFTLRISRVEAEDLGIYYCFQGSHVPLTFGSGTTLELK
notes: Tested as whole mouse IgG2a / kappa, purified from hybridoma supernatant or made recombinantly in Expi293 cells; also called 1B-3D7

Experiments:
[1] = target: T1, human A2aR on human T cells (PBMC) (Homo sapiens, UniProt P29274); experiment: primary cell binding by flow cytometry, human PBMC; details: rabbit Fc format, 2 μg/ml
T1 construct: host or cells: human PBMC (T cells)
T1 sequence (P29274 whole entry): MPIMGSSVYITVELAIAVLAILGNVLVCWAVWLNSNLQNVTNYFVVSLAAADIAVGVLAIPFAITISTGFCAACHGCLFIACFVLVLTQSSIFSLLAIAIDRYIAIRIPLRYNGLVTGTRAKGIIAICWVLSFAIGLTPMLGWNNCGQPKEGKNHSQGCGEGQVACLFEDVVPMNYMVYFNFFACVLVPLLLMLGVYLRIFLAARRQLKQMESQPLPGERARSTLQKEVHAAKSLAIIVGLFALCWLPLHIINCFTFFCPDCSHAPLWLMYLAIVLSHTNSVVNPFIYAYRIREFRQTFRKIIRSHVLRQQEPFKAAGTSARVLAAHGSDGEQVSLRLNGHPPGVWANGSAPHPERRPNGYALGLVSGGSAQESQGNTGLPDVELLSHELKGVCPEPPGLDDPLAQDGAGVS
Protocol: (§1) Human and cynomolgus PBMCs were purchased from Cytologics LLC (San Diego, CA) and iQ Biosciences (Berkeley, CA), respectively. Primary cell binding was determined using anti-human A2aR clone 3F6-9G5 at rabbit Fc format. In brief, 10^6 human and/or cynomolgus PBMCs in 100 μl FACS buffer were incubated with 3F6-9G5 (2 μg/ml) at 4° C. for 60 minutes. Cynomolgus cross-reactive anti-human CD3 (clone SP34, BD), anti-human CD8 (clone RPA-T8, Biolegend) and Zombie Green fixable Viability dye (Biolegend, Cat. 423111) were used according to manufacturer's instruction to define live immune cell subsets. After 3 washes with FACS buffer, cells were stained with PE-conjugated donkey anti-rabbit Fc detection antibody (1:200, Biolegend, Cat. 406421) for 30 minutes at 4° C. After 3 washes with FACS buffer, cells were analyzed on LSRII (Becton Dickinson). Data was analyzed using FlowJo (Becton Dickinson).

[2] = system: cynomolgus A2aR on cynomolgus T cells (PBMC); experiment: primary cell binding by flow cytometry, cynomolgus PBMC; details: rabbit Fc format, 2 μg/ml
Chain of cynomolgus A2aR on cynomolgus T cells (PBMC) (as listed by the source): as the sequence (P29274 whole entry) above, with M1V, S263N, A371T, G379S, D407G counted along it
Protocol: as §1

[3] = target: T2, human adenosine receptor A3 (Homo sapiens, UniProt P0DMS8); experiment: flow cytometry-based cell-binding assay, HEK293T-A3; details: duplicate
T2 construct: FLAG
T2 sequence (P0DMS8 1-318): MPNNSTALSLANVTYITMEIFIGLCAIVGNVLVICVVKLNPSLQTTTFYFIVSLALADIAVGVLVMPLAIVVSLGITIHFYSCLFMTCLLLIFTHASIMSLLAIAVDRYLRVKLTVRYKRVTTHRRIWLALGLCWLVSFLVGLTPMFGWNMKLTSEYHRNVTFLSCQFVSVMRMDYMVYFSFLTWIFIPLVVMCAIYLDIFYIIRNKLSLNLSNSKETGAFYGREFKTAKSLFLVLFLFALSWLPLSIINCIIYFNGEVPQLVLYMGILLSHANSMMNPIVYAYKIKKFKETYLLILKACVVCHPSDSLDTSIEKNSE
Protocol: To test the specificity of the antigen binding molecules of the invention, e.g., anti-A2aR antibodies or antigen binding fragments thereof to human A2aR and not towards any of the other 3 adenosine receptor family members, a flow cytometry-based cell-binding assay was performed by Multispan Inc (Hayward, CA). HEK293T cells stably expressing various adenosine receptors, i.e., human A1R, A2bR, and A3R, and mouse A2R, generated by Multispan Inc and HEK293T parental cell lines were used in the assay. Briefly, adenosine receptor-overexpressing cell lines and HEK293T parental cell lines were incubated with 2, 10, and 50 nM of anti-human A2aR monoclonal antibodies (clones 1B5-3D7 and 3F6-9G5) and 10 and 50 nM of mouse IgG2a Isotype control at 4° C. in the dark for 60 minutes. Anti-FLAG antibody (Abcam, ab72469, 2 μg/mL) was used as positive control for cell lines over-expressing various adenosine receptors, respectively. After 3 washes with FACS buffer (PBS plus 0.1% BSA and 0.2% sodium azide), cells were stained with an anti-mouse-IgG-PE (Invitrogen, cat. P852) detection antibody for 45 minutes at 4° C. The cells were then washed 3 times with FACS buffer and analyzed on FACSort (Becton Dickinson). Data was analyzed using CellQuest Pro (Becton Dickinson).

[4] = target: T3, human adenosine receptor A2B (human, UniProt P29275 1-332); experiment: flow cytometry on HEK293T cells stably expressing human A2bR
T3 construct: whole, on cells; the tag is not described; also called A2bR; human A2bR
T3 sequence (looked up): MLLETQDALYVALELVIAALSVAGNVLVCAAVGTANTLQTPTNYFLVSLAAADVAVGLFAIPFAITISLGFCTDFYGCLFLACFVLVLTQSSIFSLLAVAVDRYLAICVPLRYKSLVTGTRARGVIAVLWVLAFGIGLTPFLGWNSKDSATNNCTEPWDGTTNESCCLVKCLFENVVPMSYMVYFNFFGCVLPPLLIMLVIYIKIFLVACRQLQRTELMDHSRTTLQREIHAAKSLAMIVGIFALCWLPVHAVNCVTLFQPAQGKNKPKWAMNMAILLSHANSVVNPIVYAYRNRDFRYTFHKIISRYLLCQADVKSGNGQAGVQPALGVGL

[5] = target: T4, human adenosine receptor A3 (human, UniProt P0DMS8 1-318); experiment: flow cytometry on HEK293T cells stably expressing human A3R
T4 construct: whole, on cells; the tag is not described; also called A3R; human A3R
T4 sequence (looked up): T2 sequence (P0DMS8 1-318)

[6] = target: human adenosine A2A receptor (A2aR) (human, UniProt P29274 1-412); experiment: cell-based or functional assay
Chain of human adenosine A2A receptor (A2aR) (P29274 whole entry): as the sequence (P29274 whole entry) above

[7] = target: T5, mouse adenosine receptor A2A (mouse, UniProt Q60613 1-410); experiment: flow cytometry on HEK293T cells stably expressing mouse A2aR
T5 construct: whole, on cells; the tag is not described; also called mouse A2aR; mouse A2R
T5 sequence (Q60613 whole entry): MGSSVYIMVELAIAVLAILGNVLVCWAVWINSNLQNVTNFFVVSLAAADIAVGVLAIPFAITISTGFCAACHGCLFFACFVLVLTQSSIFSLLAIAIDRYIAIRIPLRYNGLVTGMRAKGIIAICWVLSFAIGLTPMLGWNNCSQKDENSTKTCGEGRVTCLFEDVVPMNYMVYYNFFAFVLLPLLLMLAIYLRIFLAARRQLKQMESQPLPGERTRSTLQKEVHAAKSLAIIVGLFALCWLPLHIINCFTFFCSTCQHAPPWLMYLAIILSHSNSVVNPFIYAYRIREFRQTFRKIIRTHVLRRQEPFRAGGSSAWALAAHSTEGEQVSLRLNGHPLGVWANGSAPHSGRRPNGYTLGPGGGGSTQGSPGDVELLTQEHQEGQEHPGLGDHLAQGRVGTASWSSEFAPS

Row | Molecule | binding to human T cells (CD4+ and CD8+) of PBMC (FIG. 6) [1] | binding to cynomolgus T cells (CD4+ and CD8+) of PBMC (FIG. 6) [2] | Geo Mean ([3]; 2 nM) | Geo Mean ([3]; 10 nM) | Geo Mean ([3]; 50 nM) | binding result [4] | binding result [5] | IC50 (M), cAMP-Glo assay of NECA-induced cAMP in HEK293 cells stably expressing human A2aR [6] | binding result [7]
1 | B1 | bound to a small subset of human T cells; also recorded: binds | cross-reacted with cynomolgus T cells; also recorded: binds | 2.07 and 1.96 | 2.49 and 2.33 | 2.66 and 2.25 | – | – | – | –
2 | B2 | – | – | 2.11 and 2.09 | 2.23 and 2.32 | 2.45 and 2.3 | no binding (tested: 2, 10 and 50 nM tested) | no binding (tested: 2, 10 and 50 nM tested) | 4.48e-09 M | no binding (tested: 2, 10 and 50 nM tested)
